These results are taken from patent US20190225691A1 (SHANGHAI HENLIUS BIOTECH, published 2019).

Like-named read-outs stand apart in the source and are kept apart here.

The target of experiment [1] is T1, human PD-L1 on cells (PHA-activated human T cells); PD-L1-transfected CHO-S cells; A375 melanoma cells; … (human, UniProt Q9NZQ7 19-290).
T1 construct: whole, on cells; also called PD-L1 expressing T cells; PD-L1 expressing CHO-S cells
The experiment is described as follows: flow cytometry on PHA-activated human CD3+ T cells, FITC-labeled anti-human IgG Fcγ, MFI. The method, then:
Human T cells were isolated from PBMC using MagniSortTM Human T Cell Enrichment Kit (eBioscience). Isolated T cells were activated by 5 μg/mL phytohemagglutinin (PHA) for 3 days to stimulate the PD-L1 expression. Activated T cells were collected and incubated in FACS buffer (PBS with 2% FBS) with human Fc blocker (eBioscience) for 20 minutes at 4° C. Binding of anti-PD-L1 monoclonal antibody was assessed by incubating the activated T cells with the serial-diluted antibodies in FACS buffer. The cells were washed with flow buffer and the binding was detected with a FITC-labeled rabbit anti-human IgG FcγAb. Cells were also stained with mouse anti-human CD3 PE-Cy7 (eBioscience) for gating CD3-positive T cells. Flow cytometric analyses were performed using the Cytomics FC 500 (Beckman Coulter Inc.).
For orientation: In flow cytometry, cells or beads pass a laser one at a time.

The target of experiment [2] is T2, recombinant human PD-L1/Fc fusion protein (human, UniProt Q9NZQ7 19-238).
T2 construct: also called hPD-L1 ECD-Fc; not shown: Fc part
The experiment is described as follows: ELISA: human PD-L1/Fc coated (15 ng/well), serially diluted antibody, HRP-conjugated secondary antibody, TMB, A450. The method, then:
ELISA assays were performed to assess the binding of selected antibodies to recombinant human PD-L1/Fc fusion proteins. Fifteen nanograms per well of human PD-L1/Fc proteins were coated on 96-well EIA microplate overnight at 4° C. After blocking with 5% skim milk, serially diluted antibodies were added and incubated at RT for 1 hour. The unbound antibodies were removed and wells were washed with PBST twice. The HRP-conjugated secondary antibody was added to the wells, and, following an incubation, excess secondary antibody was washed away. TMB was added to the wells, and following incubation, the reaction was stopped, and HRP activity was measured by monitoring the increase in absorbance at 450 nm.
For orientation: An ELISA detects its analyte on a solid surface through an enzyme-linked reagent.

Experiment [3] addresses T1, human PD-L1 on cells (PHA-activated …). The experiment in a line: flow cytometry blocking assay: PD-L1 expressing CHO-S cells incubated with antibody, then biotin-labeled PD-1-Fc and streptavidin-PE; MFI of bound PD-1. Here is the method: PD-L1 expressing CHO-S cells were suspended in FACS buffer (PBS with 4% FBS). Various concentrations of tested antibodies were added to the cell suspension (3.5E5 cells/well) and incubated at 4° C. for 30 minutes. […] The cells were washed and then stained with streptavidin-PE at 4° C. for 30 minutes. Flow cytometric analyses were performed using the Cytomics FC 500 (Beckman Coulter Inc.).
Anti-PD-L1 reference antibody and Avastin were used as the positive and negative control, respectively.

For experiment [4], the target named is T3, human PD-L1 ECD-His (human, UniProt Q9NZQ7 19-238).
T3 construct: extracellular domain; Analyte in all SPR and BLI runs; also called hPD-L1_ECD-His; hPD-L1 ECD-His; not shown: His tag
The experiment in a line: SPR, 25 C, antibody captured by anti-human IgG Fc, hPD-L1_ECD-His analyte, 1:1 fit. Here is the method:
Experiments were carried out at 25° C., and measurements were made with serial dilutions of hPD-L1_ECD-His from 55.4 nM to 11.1 nM passing over the captured antibodies in HBS-P+ buffer supplemented with 0.1% (w/v) BSA with a flow rate of […]. All data were analyzed with the evaluation software and curves were fit with a 1:1 Langmuir binding model. Data are representative of two independent experiments performed in duplicate.
On the technique in general: In SPR one partner is held on a chip, and binding of the other changes the refractive index at the surface.

Experiment [5] has as its target T3, human PD-L1 ECD-His. The experiment is described as follows: SPR, hPD-L1-His, comparison of IgG isotypes of PL2#3.
Experiment [6] concerns the target T3, human PD-L1 ECD-His. The experiment is described as follows: SPR, ratio of KD to ref-1.
Experiment [7] has as its target T3, human PD-L1 ECD-His. The experiment is described as follows: SPR, 25 C, antibody captured by anti-human IgG Fc, hPD-L1-His analyte, 1:1 fit. The method, then:
(§1) The binding affinity and kinetics were measured using surface plasmon resonance (SPR). […] Experiments were carried out at 25° C., and measurements were made with serial dilutions of hPD-L1-His from 19.1 nM to 0.71 nM passing over the captured antibodies in HBS-P+buffer supplemented with 0.1% (w/v) BSA with a flow rate of 25 μL/min. All data were analyzed with the evaluation software and curves were fit with a 1:1 Langmuir binding model. All the data are representative of two independent studies performed in duplicate.

The target of experiment [8] is T3, human PD-L1 ECD-His. The experiment is described as follows: SPR, ratio of KD to ref-1. The method, then: as §1
The source holds these as a separate data set.

T2 sequence (Q9NZQ7 19-238 limits assumed): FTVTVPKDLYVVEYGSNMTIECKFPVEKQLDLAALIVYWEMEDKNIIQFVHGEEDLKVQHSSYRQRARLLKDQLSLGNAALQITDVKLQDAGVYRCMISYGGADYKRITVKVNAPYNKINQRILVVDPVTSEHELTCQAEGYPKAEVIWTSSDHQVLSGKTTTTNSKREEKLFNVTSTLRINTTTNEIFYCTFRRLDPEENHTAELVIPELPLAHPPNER
T3 sequence (Q9NZQ7 19-238): as the sequence (Q9NZQ7 19-238 limits assumed) above
T1 sequence (Q9NZQ7 19-290): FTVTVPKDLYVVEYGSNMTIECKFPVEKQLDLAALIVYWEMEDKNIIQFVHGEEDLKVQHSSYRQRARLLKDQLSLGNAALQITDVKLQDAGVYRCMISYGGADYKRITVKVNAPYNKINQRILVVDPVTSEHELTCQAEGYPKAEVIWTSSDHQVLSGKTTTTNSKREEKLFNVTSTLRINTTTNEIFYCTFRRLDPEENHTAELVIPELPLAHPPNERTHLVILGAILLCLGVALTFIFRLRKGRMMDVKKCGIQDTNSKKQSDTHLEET

B1: PL12 (full-length, N297A mutant human IgG1) (antibody, V domains shown)
VH: QVQLVQSGAEVKKPGSSVKVSCKASGGTFSSYAISWVRQAPGQGLEWMGRIIPILGIANYAQKFQGRVTITADKSTSTAYMELSSLRSEDTAVYYCARGIGSYSFGAFDIWGQGTMVTVSS
VL: QSVLTQPPSVSGAPGQRVTISCTRSSSNIGAGHDVHWYQQLPGTAPKLLIYGNSNRPSGVPDRFSGSKSGTSASLAITGLQAEDGADYYCQSYDSSLTGVVFGGGTKLTVLG
For the molecule B1, the EC50 (read off the curve) (as a rule, the concentration that produces a half-maximal response) in experiment [1] was about 0.03 µg/mL. In experiment [2], the “EC50 (read off the curve)” value was about 0.03 µg/mL. Also, the “IC50 (read off the curve)” value in experiment [3] is about 0.2 µg/mL. Further, in experiment [4], the Kd (in general, the free concentration of one partner at which half of the binding sites on the other are occupied at equilibrium, for simple one-to-one binding) worked out at 6.68 nM; the koff (as a rule, a measure of how fast the partners let go of each other) worked out at 0.00267 s⁻¹; the kon (usually the rate constant with which the complex forms) came out at 416000 M⁻¹ s⁻¹.

B2: PL1 (full-length, N297A mutant human IgG1) (antibody, V domains shown)
VH: QIQLVQSGAEVKKPGSSVKVSCKASGGTFSSYAISWVRQAPGQGLEWMGRIIPILGIANYAQKFQGRVTITAGESTSTAYMELSSLRSEDTAVYYCAREGSSGWLGVLDYWGQGTLVTVSS
VL: QAVLTQPSSVSGAPGQRVTISCTGSSSNVGAGYDVHWYQQLPGTAPKLLIYGNSNRPSGVPDRFSGSKSGTSASLAITGLQAEDEADYYCQSYDSSLSGWVFGGGTKLTVLG
As for B2, the “EC50 (read off the curve)” value in experiment [2] was about 0.004 µg/mL. In experiment [3], the “IC50 (read off the curve)” value is about 0.02 µg/mL. In addition, in experiment [4], the Kd is 15.8 nM, the koff was determined as 0.00453 s⁻¹ and the kon amounted to 291000 M⁻¹ s⁻¹.

B3: PL3 (full-length, N297A mutant human IgG1) (antibody, V domains shown)
VH: QVQLVQSGAEVKKPGSSVKVSCKASGGTFSSYTISWVRQAPGQGLEWMGRIIPILGIANYAQKFQGRVTITADKSTSTAYMELSSLRSEDTAVYYCARSRDGYSFGAFDIWGQGTLVTVSS
VL: QSVVTQPPPVSGAPGQRVTISCTGSSSNIGAGYDVHWYQQLPGTAPKLLIYGNSNRPSGVPDRFSGSKSGTSASLAITGLQAEDEADYYCQSYDSSLSAPVVFGGGTKLTVLG
For the molecule B3, the “EC50 (read off the curve)” value in experiment [1] is about 0.04 µg/mL. Also, the concentration for a half-maximal effect (EC50 (read off the curve)) in experiment [2] was about 0.02 µg/mL. For the same molecule, the “IC50 (read off the curve)” value in experiment [3] is about 0.1 µg/mL. In experiment [4], the Kd was 11.9 nM, the koff came out at 0.0041 s⁻¹ and the kon amounted to 348000 M⁻¹ s⁻¹.

B4: PL2#3 IgG1 (antibody, V domains shown)
VH: EVQLVQSGGGLVKPGGSLRLSCAASGFTFSSYTMNWVRQAPGKGLEWVSSISSGSDYLYYADSVKGRFTISRDNAKNSLYLQMNSLRAEDTAVYYCARNELRWYPQAGAFDRWGQGTMVTVSS
VL: QSVVTQPPSMSAAPGQRVTISCSGSSSYIESSYVGWYQQLPGTAPRLLIYDDDMRPSGIPDRFSGSKSGTSATLAITGLQTGDEADYYCEIWRSGLGGVFGGGTKLTVL
notes: Human IgG1
In experiment [5], B4 returned a Kd of 0.25 nM, a koff of 0.000276 s⁻¹ and a kon of 1.14e+06 M⁻¹ s⁻¹. The “Improvement over ref-1” value in experiment [6] was found to be 2.53 fold.

B5: PL2 IgG1 (antibody, V domains shown)
VH: EVQLVQSGGGLVKPGGSLRLSCAASGFTFSSYTMNWVRQAPGKGLEWVSSISSGSDYLYYADSVKGRFTISRDNAKNSLYLQMNSLRAEDTAVYYCARNELRWYPQAGAFDIWGQGTMVTVSS
VL: QSVVTQPPSMSAAPGQNVTISCSGSSSYIESSYVSWYQQLPGTAPRLLIYDDDMRPSGIPDRFSGSKSGTSATLAITGLQTGDEADYYCEIWDSGLGGVFGGGTKLTVL
In experiment [5], B5 had a Kd of 1.56 nM, an off-rate constant (koff) of 0.00193 s⁻¹ and a kon of 1.25e+06 M⁻¹ s⁻¹. Besides, in experiment [6], the “Improvement over ref-1” value was 0.41 fold.

B6: PL2#4 IgG2 (antibody, V domains shown)
VH: EVQLVQSGGGLVKPGGSLRLSCAASGFTFSSYTMNWVRQAPGKGLEWVSSISSGSDYLYYADSVKGRFTISRDNAKNSLYLQMNSLRAEDTAVYYCARNELRWYPLAGAFDIWGQGTMVTVSS
VL: QSVVTQPPSMSAAPGQRVTISCSGVSSYIESSYVSWYQQLPGTAPRLLIYDDDMRPSGIPDRFSGSKSGTSATLAITGLQTGDEADYYCKIWDSGLGGVFGGGTKLTVL
notes: Human IgG2 backbone
Turning to B6, in experiment [7], the Kd turned out to be 1.27 nM, the dissociation rate constant (koff) was found to be 0.00099 s⁻¹ and the kon was found to be 882000 M⁻¹ s⁻¹. Moreover, the “Improvement over ref-1” value in experiment [8] came to 6.62 fold.

B7: PL2#5 IgG2 (antibody, V domains shown)
VH: EVQLVQSGGGLVKPGGSLRLSCAASGFTFSSYTMNWVRQAPGKGLEWVSSISSGSDYLYYADSVKGRFTISRDNAKNSLYLQMNSLRAEDTAVYYCARNELRWYPFAGAFDIWGQGTMVTVSS
VL: QSVVTQPPSMSAAPGQRVTISCSGSSSYIESSYVSWYQQLPGTAPRLLIYDDDMRPSGIPDRFSGSKSGTSATLAITGLQTGDEADYYCEIWDSRLGGVFGGGTKLTVL
notes: Human IgG2 backbone
As for B7, in experiment [7], the Kd turned out to be 3.07 nM, the koff is 0.00221 s⁻¹ and the kon is 812000 M⁻¹ s⁻¹. Further, in experiment [8], the “Improvement over ref-1” value is 2.74 fold.

B8: PL2#3 IgG4 (antibody, V domains shown)
VH: EVQLVQSGGGLVKPGGSLRLSCAASGFTFSSYTMNWVRQAPGKGLEWVSSISSGSDYLYYADSVKGRFTISRDNAKNSLYLQMNSLRAEDTAVYYCARNELRWYPQAGAFDRWGQGTMVTVSS
VL: QSVVTQPPSMSAAPGQRVTISCSGSSSYIESSYVGWYQQLPGTAPRLLIYDDDMRPSGIPDRFSGSKSGTSATLAITGLQTGDEADYYCEIWRSGLGGVFGGGTKLTVL
notes: Human IgG4
For the molecule B8, in experiment [5], the affinity, expressed as Kd, was 0.239 nM; the koff was 0.000293 s⁻¹; the kon is 1.26e+06 M⁻¹ s⁻¹. Further, the “Improvement over ref-1” value in experiment [6] was found to be 2.64 fold.

B9: PL2#39 IgG2 (antibody, V domains shown)
VH: EVQLVQSGGGLVKPGGSLRLSCAASGFTFSSYTMNWVRQAPGKGLEWVSSISSGSDYLYYADSVKGRFTISRDNAKNSLYLQMNSLRAEDTAVYYCARNELRWYPKAGAFDIWGQGTMVTVSS
VL: QSVVTQPPSMSAAPGQRVTISCSGSSSYITSSYVSWYQQLPGTAPRLLIYDDDMRPSGIPDRFSGSKSGTSATLAITGLQTGDEADYYCKIWDSGLGGVFGGGTKLTVL
notes: Human IgG2 backbone
Turning to B9, in experiment [7], binding was characterised by a dissociation constant (Kd) of 0.779 nM, the koff came to 0.00143 s⁻¹ and the kon was determined as 2.04e+06 M⁻¹ s⁻¹. Moreover, the “Improvement over ref-1” value in experiment [8] stood at 10.8 fold.

B10: PL2#3 IgG2 (antibody, V domains shown)
VH: EVQLVQSGGGLVKPGGSLRLSCAASGFTFSSYTMNWVRQAPGKGLEWVSSISSGSDYLYYADSVKGRFTISRDNAKNSLYLQMNSLRAEDTAVYYCARNELRWYPQAGAFDRWGQGTMVTVSS
VL: QSVVTQPPSMSAAPGQRVTISCSGSSSYIESSYVGWYQQLPGTAPRLLIYDDDMRPSGIPDRFSGSKSGTSATLAITGLQTGDEADYYCEIWRSGLGGVFGGGTKLTVL
notes: Human IgG2 backbone
Turning to B10, in experiment [7], the Kd is 0.516 nM, the koff is 0.000557 s⁻¹ and the kon came to 1.32e+06 M⁻¹ s⁻¹. Besides, in experiment [5], the Kd turned out to be 0.118 nM, the koff stood at 0.000162 s⁻¹ and the kon was 1.34e+06 M⁻¹ s⁻¹. For the same molecule, in experiment [8], the “Improvement over ref-1” value worked out at 16.3 fold. Besides, the “Improvement over ref-1” value in experiment [6] was found to be 5.36 fold.
